{"source": "patent US20210163535A1", "about": "(KYUNGPOOK NATIONAL UNIVERSITY INDUSTRY ACADEMIC COOPERATION …, published 2021)", "binders": {"B1": {"name": "v6Pep-1 (peptide)", "peptide": "CNLNTIDTC", "modifications": "cysteine pairing not given here; also: FITC-labelled or biotinylated, site of label not given here", "notes": "Selected from a CX7C phage display library; also called clone-1; FITC-v6Pep-1"}, "B2": {"name": "v6Pep-2 (peptide)", "peptide": "CNEWQLKSC", "modifications": "cysteine pairing not given here; also: FITC-labelled or biotinylated, site of label not given here", "notes": "Selected from a CX7C phage display library; also called clone-2; FITC-v6Pep-2"}}, "molecular_target": "T1, wild-type CD44 (UniProt P16070-12 21-361, limits assumed)", "T1 construct": "The isoform is not defined beyond 'wild-type'", "T1 sequence (P16070 other isoform, or with tags, fused parts or gaps limits assumed)": "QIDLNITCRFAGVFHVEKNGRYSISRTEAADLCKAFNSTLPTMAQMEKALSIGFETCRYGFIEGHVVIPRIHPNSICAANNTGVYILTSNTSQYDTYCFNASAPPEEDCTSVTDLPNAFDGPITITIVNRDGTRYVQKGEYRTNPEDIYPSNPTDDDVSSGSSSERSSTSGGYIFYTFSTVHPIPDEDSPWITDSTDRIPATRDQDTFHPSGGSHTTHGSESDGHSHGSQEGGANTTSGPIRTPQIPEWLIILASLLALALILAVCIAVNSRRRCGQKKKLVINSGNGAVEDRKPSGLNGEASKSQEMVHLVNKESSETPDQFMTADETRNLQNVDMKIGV", "test": "pull-down of cell lysate with biotinylated peptide on avidin beads, Western blot", "note": "No end group written: not given here."}
{"binder": "B1", "values": [{"measurement": "binding result", "value": "no binding"}]}
{"binder": "B2", "values": [{"measurement": "binding result", "value": "no binding"}]}
